The labels stand for the following.
B4: yeast Ubc7p, in vitro translated and labelled with 35S-methionine (enzyme, UniProt Q02159 1-165, looked up)
chain: MSKTAQKRLLKELQQLIKDSPPGIVAGPKSENNIFIWDCLIQGPPDTPYADGVFNAKLEFPKDYPLSPPKLTFTPSILHPNIYPNGEVCISILHSPGDDPNMYELAEERWSPVQSVEKILLSVMSMLSEPNIESGANIDACILWRDNRPEFERQVKLSILKSLGF
modifications: 35S-methionine label
B5: GST fusion of the entire gp78 cytoplasmic tail (gp78C; residues 309-643 of SEQ ID NO:2) (other)
chain: IRRHKNYLRVVGNMEARFAVATPEELAVNNDDCAICWDSMQAARKLPCGHLFHNSCLRSWLEQDTSCPTCRMSLNIADNNRVREEHQGENLDENLVPVAAAEGRPRLNQHNHFFHFDGSRIASWLPSFSVEVMHTTNILGITQASNSQLNAMAHQIQEMFPQVPYHLVLQDLQLTRSVEITTDNILEGRIQVPFPTQRSDSIRPALNSPVERPSSDQEEGETSAQTERVPLDLSPRLEETLDFGEVEVEPSEVEDFEARGSRFSKSADERQRMLVQRKDELLQQARKRFLNKSSEDDAASESFLPLEGASSDPVTLRRRMLAAAAERRLQKQQTS
notes: also called gp78 cytoplasmic domain; not shown: glutathione S-transferase (GST) fusion partner, N-terminal (pGEX type vector)
B7: Ube2G2/MmUbc7, in vitro translated and labelled with 35S-methionine (enzyme)
chain: MAGTALKRLMAEYKQLTLNPPEGIVAGPMNEENFFEWEALIMGPEDTCFEFGVFPAILSFPLDYPLSPPKMRFTCEMFHPNIYPDGRVCISILHAPGDDPMGYESSAERWSPVQSVEKILLSVVSMLAEPNDESGANVDASKMWRDDREQFYKIAKQIVQKSLGL
modifications: 35S-methionine label
notes: Translated in wheat germ or rabbit reticulocyte lysate; also called in vitro translated Ube2G2

The target in assay [1] is T1, Myc-Ube2G2, co-expressed in HEK 293T cells (human (100% identical to mouse MmUbc7), UniProt P60604 1-165).
T1 construct: Plasmid described in Tiwari and Weissman, 2001; also called Myc-MmUbc7; myc-tagged MmUbc7/Ube2G2
T1 sequence: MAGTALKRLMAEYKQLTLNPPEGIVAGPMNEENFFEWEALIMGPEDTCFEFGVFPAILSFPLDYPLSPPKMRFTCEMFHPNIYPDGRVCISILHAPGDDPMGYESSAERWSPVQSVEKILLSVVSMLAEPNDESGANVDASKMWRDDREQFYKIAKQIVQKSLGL
Kind of assay: anti-Myc immunoprecipitation from co-transfected cells, anti-gp78 immunoblot. On the technique in general: Immunoblotting shows a protein as a band on a membrane.

The target of assay [2] is T2, N-terminal GFP fusion of gp78 residues 574-611 (GFP-574-611) (human, UniProt P42212 1-238 = GFP).
T2 construct: the vector encodes the enhanced variant; also called G2BD
Kind of assay: co-immunoprecipitation with GFP fusion from HEK 293T cells.

The target in assay [3] is T3, GST fusion of the cytoplasmic domain of yeast Cue1p (Cue1p 24-203) (yeast, UniProt P38428 24-203).
T3 construct: range 24-203; also called GST-Cue1p 24-203; not shown: glutathione S-transferase (GST) fusion partner, N-terminal (pGEX4T-1)
T3 sequence (looked up): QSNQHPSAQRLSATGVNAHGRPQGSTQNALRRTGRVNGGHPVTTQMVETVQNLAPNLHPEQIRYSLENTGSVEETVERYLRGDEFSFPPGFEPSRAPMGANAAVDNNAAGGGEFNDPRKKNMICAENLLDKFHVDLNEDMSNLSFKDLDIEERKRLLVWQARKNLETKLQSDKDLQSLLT
Kind of assay: GST pull-down, E2 in vitro translated in wheat germ.

Assay [4] has as its target B5. Described as above.
The target of assay [5] is B7. Kind of assay: GST pull-down, E2 translated in wheat germ and labelled with 35S-Met, equal counts.
Assay [6] deals with T4, lysine 48-linked (K48) tetra-ubiquitin (UniProt P0CG48 1-76, four ubiquitins joined by lysine 48 isopeptide links).
T4 construct: the monomer is its first 76 residues
Kind of assay: GST pull-down, anti-ubiquitin immunoblot.

The target of assay [7] is B5. Kind of assay: GST pull-down.
Assay [8] addresses B4. Kind of assay: GST pull-down, E2 in vitro translated in wheat germ.
The target in assay [9] is UbcH5B, in vitro translated and labelled with 35S-methionine (human, UniProt P62837 1-147). Kind of assay: GST pull-down, E2 translated in wheat germ and labelled with 35S-Met, equal counts.
Sequence of UbcH5B, in vitro translated and labelled with 35S-methionine (P62837 whole entry): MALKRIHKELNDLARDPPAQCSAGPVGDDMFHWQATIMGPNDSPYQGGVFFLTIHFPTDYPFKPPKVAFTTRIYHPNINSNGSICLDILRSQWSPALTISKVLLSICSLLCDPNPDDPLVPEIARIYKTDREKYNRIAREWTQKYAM

B1: full length gp78 with both Cue domain mutations (gp78Cue-m1, 2) (enzyme)
chain: MPLLFLERFPWPSLRTYTGLSGLALLGTIISAYRALSQPEAGPGEPDQLTASLQPEPPAPARPSAGGPRARDVAQYLLSDSLFVWVLVNTACCVLMLVAKLIQCIVFGPLRVSERQHLKDKFWNFIFYKFIFIFGVLNVQTVEEVVMWCLWFAGLVFLHLMVQLCKDRFEYLSFSPTTPMSSHGRVLSLLVAMLLSCCGLAAVCSITGYTHGMHTLAFMAAESLLVTVRTAHVILRYVIHLWDLNHEGTWEGKGTYVYYTDFVMELTLLSLDLMHHIHMLLFGNIWLSMASLVIFMQLRYLFHEVQRRIRRHKNYLRVVGNMEARFAVATPEELAVNNDDCAICWDSMQAARKLPCGHLFHNSCLRSWLEQDTSCPTCRMSLNIADNNRVREEHQGENLDENLVPVAAAEGRPRLNQHNHFFHFDGSRIASWLPSFSVEVMHTTNILGITQASNSQLNAMAHQIQEGGRQVPYHLRLQVDQLTRSVEITTDNILEGRIQVPFPTQRSDSIRPALNSPVERPSSDQEEGETSAQTERVPLDLSPRLEETLDFGEVEVEPSEVEDFEARGSRFSKSADERQRMLVQRKDELLQQARKRFLNKSSEDDAASESFLPLEGASSDPVTLRRRMLAAAAERRLQKQQTS
notes: Full length, expressed in cells; also called Cue12M
B1: the binding result in assay [1] is listed as “binds”.

B2: full length gp78 with the E2-m2 mutation (gp78E2-m2) (enzyme)
chain: MPLLFLERFPWPSLRTYTGLSGLALLGTIISAYRALSQPEAGPGEPDQLTASLQPEPPAPARPSAGGPRARDVAQYLLSDSLFVWVLVNTACCVLMLVAKLIQCIVFGPLRVSERQHLKDKFWNFIFYKFIFIFGVLNVQTVEEVVMWCLWFAGLVFLHLMVQLCKDRFEYLSFSPTTPMSSHGRVLSLLVAMLLSCCGLAAVCSITGYTHGMHTLAFMAAESLLVTVRTAHVILRYVIHLWDLNHEGTWEGKGTYVYYTDFVMELTLLSLDLMHHIHMLLFGNIWLSMASLVIFMQLRYLFHEVQRRIRRHKNYLRVVGNMEARFAVATPEELAVNNDDCAICWDSMQAARKLPCGHLFHNSCLRSWLEQDTSCPTCRMSLNIADNNRVREEHQGENLDENLVPVAAAEGRPRLNQHNHFFHFDGSRIASWLPSFSVEVMHTTNILGITQASNSQLNAMAHQIQEMFPQVPYHLVLQDLQLTRSVEITTDNILEGRIQVPFPTQRSDSIRPALNSPVERPSSDQEEGETSAQTERVPLDLSPRLEETLDFGEVEVEPSEVEDFEARGSRFSKSADERAAAGGGRKDELLQQARKRFLNKSSEDDAASESFLPLEGASSDPVTLRRRMLAAAAERRLQKQQTS
notes: Full length, expressed in cells; also called ΔB in the context of the full length gp78
Consider B2, for which the binding result in assay [1] is recorded as “no binding”.

B3: endogenous Ube2g1 of HEK 293T cells (enzyme, human, UniProt P62253 2-170, looked up)
chain: TELQSALLLRRQLAELNKNPVEGFSAGLIDDNDLYRWEVLIIGPPDTLYEGGVFKAHLTFPKDYPLRPPKMKFITEIWHPNVDKNGDVCISILHEPGEDKYGYEKPEERWLPIHTVETIMISVISMLADPNGDSPANVDAAKEWREDRNGEFKRKVARCVRKSQETAFE
Consider B3, for which the binding result in [2] was “no binding”.
As to B4, the binding result in [3] is “binds”; in assay [4], “no binding”.
Turning to B5, the “amount bound (% of input)” value in [5] was ~10 % of input.

B6: GST-gp78CCue-m1, 2: gp78 C-terminal region with both sets of Cue domain mutations (other)
chain: IRRHKNYLRVVGNMEARFAVATPEELAVNNDDCAICWDSMQAARKLPCGHLFHNSCLRSWLEQDTSCPTCRMSLNIADNNRVREEHQGENLDENLVPVAAAEGRPRLNQHNHFFHFDGSRIASWLPSFSVEVMHTTNILGITQASNSQLNAMAHQIQEGGRQVPYHLRLQVDQLTRSVEITTDNILEGRIQVPFPTQRSDSIRPALNSPVERPSSDQEEGETSAQTERVPLDLSPRLEETLDFGEVEVEPSEVEDFEARGSRFSKSADERQRMLVQRKDELLQQARKRFLNKSSEDDAASESFLPLEGASSDPVTLRRRMLAAAAERRLQKQQTS
notes: not shown: glutathione S-transferase (GST) fusion partner, N-terminal (pGEX type vector)
With B6, the binding result in assay [6] was “no binding (tested: 1 ug K48 tetra-ubiquitin)”.
For B7, the binding result in assay [7] is given as “binds”.

B8: GST-gp78CCue-m1: complete C-terminal region of gp78 with MFP to GGR mutation of residues 467 to 469 (other)
chain: IRRHKNYLRVVGNMEARFAVATPEELAVNNDDCAICWDSMQAARKLPCGHLFHNSCLRSWLEQDTSCPTCRMSLNIADNNRVREEHQGENLDENLVPVAAAEGRPRLNQHNHFFHFDGSRIASWLPSFSVEVMHTTNILGITQASNSQLNAMAHQIQEGGRQVPYHLVLQDLQLTRSVEITTDNILEGRIQVPFPTQRSDSIRPALNSPVERPSSDQEEGETSAQTERVPLDLSPRLEETLDFGEVEVEPSEVEDFEARGSRFSKSADERQRMLVQRKDELLQQARKRFLNKSSEDDAASESFLPLEGASSDPVTLRRRMLAAAAERRLQKQQTS
notes: as for B6
For the molecule B8, in assay [6], the binding result was “no binding (tested: 1 ug K48 tetra-ubiquitin)”.

B9: GST-gp78Cuem2: gp78 C-terminal region with VLQDL to RLQVD mutation of residues 476 to 480 (other)
chain: IRRHKNYLRVVGNMEARFAVATPEELAVNNDDCAICWDSMQAARKLPCGHLFHNSCLRSWLEQDTSCPTCRMSLNIADNNRVREEHQGENLDENLVPVAAAEGRPRLNQHNHFFHFDGSRIASWLPSFSVEVMHTTNILGITQASNSQLNAMAHQIQEMFPQVPYHLRLQVDQLTRSVEITTDNILEGRIQVPFPTQRSDSIRPALNSPVERPSSDQEEGETSAQTERVPLDLSPRLEETLDFGEVEVEPSEVEDFEARGSRFSKSADERQRMLVQRKDELLQQARKRFLNKSSEDDAASESFLPLEGASSDPVTLRRRMLAAAAERRLQKQQTS
notes: as for B6
For B9, in assay [6], the binding result is on record as “no binding (tested: 1 ug K48 tetra-ubiquitin)”.

B10: GST fusion of the gp78 cytoplasmic tail beginning after the RING finger (residues 429-643 of SEQ ID NO:2) (other)
chain: IASWLPSFSVEVMHTTNILGITQASNSQLNAMAHQIQEMFPQVPYHLVLQDLQLTRSVEITTDNILEGRIQVPFPTQRSDSIRPALNSPVERPSSDQEEGETSAQTERVPLDLSPRLEETLDFGEVEVEPSEVEDFEARGSRFSKSADERQRMLVQRKDELLQQARKRFLNKSSEDDAASESFLPLEGASSDPVTLRRRMLAAAAERRLQKQQTS
notes: also called gp78CΔR; gp78CAR; not shown: GST carrier and the pGEX4T-1 linker (N-terminal)
On to B10, for which the “amount bound (% of input)” value in assay [5] was ~10 % of input. The binding result in assay [8] is “no binding”.

B11: GST-AO7 (92 to 259), the RING finger and surrounding regions of the E3 AO7 (other)
chain: QIHKISQALGHVAKEGLGTAMLYELIEKGKEILTDNNIPHGQCVICLYGFQEKEAFTKTPCYHYFHCHCLARYIQHMEQELTTQEQEQERQHVVTKQKAVGVQCPVCREPLVYDLASLKAAPEPQQPMELYQPSAESLRQQEELKLLYQRQQEKGGIIDLEAERNRYF
notes: range 92-259; also called A07; not shown: glutathione S-transferase (GST) fusion partner
On to B11, for which the “amount bound (% of input)” value in [9] is ~10 % of input.

B12: Ube2G1, in vitro translated and labelled with 35S-methionine (enzyme, rat, UniProt P62255 1-170, looked up)
chain: MTELQSALLLRRQLAELNKNPVEGFSAGLIDDNDLYRWEVLIIGPPDTLYEGGVFKAHLTFPKDYPLRPPKMKFITEIWHPNVDKNGDVCISILHEPGEDKYGYEKPEERWLPIHTVETIMISVISMLADPNGDSPANVDAAKEWREDRNGEFKRKVARCVRKSQETAFE
modifications: 35S-methionine label
notes: also called rat Ubc7 (Ube2g1)
For B12, the binding result in assay [3] and in [4] was “no binding” throughout.
